Measured values taken from patent publication US5037646A, “Processes for the treatment of vascular disease” (Genentech, Inc., priority 1990, dated 1991).
Several values for one entry are separate records, joined by “and”; a condition that tells them apart may be missing. Identical values can stand only once. Like-named read-outs stand apart in the source and are kept apart here.

How the values were obtained:
plasminogen = assay: In vitro plasminogen activation, two-stage assay with plasmin specific substrate S-2251; assay type: biochemical
Protocol: The ability of t-PA to activate plasminogen can be measured in an in vitro assay by preincubating t-PA and plasminogen and then adding the plasmin specific substrate H-D-valyl-H-leucyl-H-lysine-p-nitronilide (S-2251). The maximum rate of this reaction is observed in the presence of fibrin(ogen) or fragments of fibrin(ogen) which act as stimulators of the reaction.
The plasmin specific substrate S-2251 was used in a two-stage assay to measure the ability of the sample to activate plasminogen. Fibrin clots were made by incubating the sample with 0.02 ml of a 20 mg/ml fibrinogen solution with 1U of thrombin in a total volume of 0.12 ml of 0.05M Tris-HCl, 0.12M NaCl, 0.01% Tween 80, pH 7.4 for 30 min. at 37' C. Alternatively, the thrombin could be omitted and fibrinogen used as the stimulator. Glu-plasminogen solution, 0.03 ml of a 2.1 mg/ml solution, was then added. After 10 min at 37' C., 0.35 ml of 2.86 mM S-2251 in 0.037M Tris, 0.86 NaCl, 0.007% Tween 80, pH 7.4) were added. This mixture was incubated for five minutes then the reaction was stopped by the addition of 0.1 ml of 50% glacial acetic acid. Absorbance at 405 nm was measured. The activity was expressed as the change in absorbance per nanogram per minute in the presence of substrate.
The stimulation is the ratio of the specific activity of the sample containing fibrin and the specific activity of the sample not containing fibrin.

fibrin clot = assay: In vitro fibrin clot lysis assay with saturating plasminogen; assay type: biochemical; conditions: t-PA = 1.0
Excerpt: In order to further compare the ability of des 1-44 t-PA to activate plasminogen in the presence of fibrin(ogen), it was compared to t-PA in an assay which measures the ability of t-PA and saturating plasminogen to lyse a fibrin clot.

[1] = Pharmacokinetics of I-125 labeled t-PA, i.v. bolus in rabbits; assay type: in vivo, rabbit; design: B0 / t1/2b / A0 / AUMC × 10^- 6: unit not given here; conditions: carrier 1 mg/kg cold rt-PA; for CL (clearance rate): natural t-PA
Protocol: Comparative pharmacokinetic studies were performed in rabbits. I-125 labeled test t-PA, either wild type or N44 variant, 5 uCi/kg with a specific activity of 5 to 10 uCi/ug, and carrier wild type t-PA, 1.0 mg/kg, were coinjected, serial blood samples were collected, plasma prepared and the TCA (trichloroacetic acid) precipitable counts were determined at each time point. TCA precipitation was used in order to remove any small metabolites which appear at later times due to degradation of t-PA by the liver. The plasma concentration time curve for rt-PA was fit to a biexponential equation C-Aexp(-alphaXt)+Bexp(-betaXt). The curve for the des (1-44) rt-PA was fit to a monoexponential equation C-Aexp(-alphaXt). The clearance (Cl) was calculated by the formula Cl-DOSE/AUC, where AUC is the area under the plasma concentration time curve. […]

[2] = cited from earlier work
[3] = In vitro protease amidolytic assay with S-2288 substrate; assay type: biochemical; conditions: S-2288, 23 nM protein, pH 7.4
Protocol: The activity of des (1-44) t-PA in a protease amidolytic assay was compared to that of natural t-PA using the S-2288 paranitroanilide chromogenic substrate (Helena Labs). The S-2288 paranitroanilide substrate provides a direct measurement of protease amidolytic activity. The kinetic constants for t-PA and des 1-44 t-PA were determined with the S-2288 substrate using an H-P diode array spectrophotometer (HP8451-A). Hydrolysis of the substrate was measured continuously at two substrate concentrations (1.0 mM and 0.1 mM) while the protein concentrations were held constant at 23 nM in a buffer composed of 0.05M Tris-HCl, 0.12M NaCl, 0.01% Tween 80, pH 7.4. Using the differential form of the Michaelis-Menten equation and a non-linear regression the Km and Vmax were calculated from the curves of the progress of the reaction.

[4] = rabbits; cited from earlier work
[5] = monkeys; cited from earlier work
[6] = individual rabbits #A, #C, #E, #G

## natural t-PA: human tissue plasminogen activator, amino acids 1-527, whether obtained from natural or recombinant sources
plasminogen; With Fibrin Clots
  Stim (stimulation: specific activity with / without): 100
plasminogen; With Fibrin Clots, relative to t-PA
  rel (relative activity): 100%
plasminogen; With Fibrinogen
  Stim (stimulation: specific activity with / without): 100
plasminogen; With Fibrinogen, relative to t-PA
  +Fgn rel (relative activity): 100%
plasminogen; in the presence of fibrin
  increase of activity in the presence of fibrin: about 50 fold
Fibrin clot
  Clot lysis (relative units): 1.0 relative units
[1]; MEAN
  AUMC × 10^- 6: 601.493
  VDSS: 213.336 mL/kg
  t1/2b: 28.868
[1]; MEAN, biexponential fit
  A0: 275201
  B0: 30352.649
[1]; MEAN, unit from b248, listed as rT-PA
  t1/2a: 3.067 min
[1]; MEAN, unit from b248, listed as rt-PA
  t1/2a: about 3.1 minutes
[1]; MEAN, listed as rT-PA
  CL (clearance rate): 8.357 mL/min/kg
[1]; MEAN, listed as rt-PA
  CL (clearance rate): about 8.4 ml/min/kg
[1]; [6]
  A0: 247990 and 306059 and 255904 and 290852
  AUMC × 10^- 6: 789.510 and 452.925 and 637.710 and 525.828
  B0: 30144.320 and 32920.033 and 27005.306 and 31340.936
  CL: 7.063 mL/min/kg and 9.222 mL/min/kg and 8.567 mL/min/kg and 8.577 mL/min/kg
  VDSS: 209.553 mL/kg and 197.899 mL/kg and 232.427 mL/kg and 213.466 mL/kg
  t1/2a: 3.716 min and 2.645 min and 3.334 min and 2.575 min
  t1/2b: 33.236 and 23.987 and 31.782 and 26.467
[2]; beta phase
  t1/2b: about 30 minutes
[2]; dominant alpha phase
  t1/2a: about 2.2 minutes
[2]; where Co=100
  t1/2a component: about 95%
  t1/2b component: about 5%
[3]
  kcat: 17.9 s⁻¹
[4]
  nominal half-life: about 2 minutes
[5]
  nominal half-life: ~3.5 min
